Data published in paper PMC5061333.

Molecular target: ASC (UniProt Q9ULZ3)
Experiment: EMSA
Conditions: EMSA: 100 mM Tris, 500 mM NaCl, 10 mM DTT, pH 7, 15°C 30 min; 3-5 μg DNA, 0.2-0.65 μg recombinant protein or 5 μg nuclear extract; 6% native PAGE

Sequence of ASC (Q9ULZ3 whole entry): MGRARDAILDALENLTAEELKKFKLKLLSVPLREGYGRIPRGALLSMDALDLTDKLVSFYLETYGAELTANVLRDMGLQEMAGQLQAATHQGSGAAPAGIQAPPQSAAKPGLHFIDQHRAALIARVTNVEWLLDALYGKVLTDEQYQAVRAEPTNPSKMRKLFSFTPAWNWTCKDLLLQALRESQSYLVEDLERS

Sequence: ATTTATATAGCTTCTCAGCCTCGAATGTGGAAATAGGTGACTCATTTGAGTGTTTTCTTTCTTTTTAGAGTCTACAGAACTTTGAAAGTATGTGTTATTTTTCATTAACTAAAACGAGGAAGTATTACATCGTTATTGGCAGGAAGCACACAATGTATTTGTCTTTCAAAGGATTTTTTTTTCTGTCTGCTGCATAAATTGACTCCATGAGAAACCTCATTTTTTTGCCAAAGTCAAATGACTGCTCTCATAGGTATCA (double strand) [MMP7 promoter P1]
- binding: binds
